{"source": "the supplement of paper PMC9112550", "about": "“Optimization of the antimicrobial peptide Bac7 by deep mutational scanning” (BMC Biology, 2022);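 also: peptides expressed intracellularly from a pBAD plasmid library in pooled LB shake-flask culture, induced with 0.3% L-arabinose, DNA abundance read by NGS, three biological replicates, DESeq2 with apeglm shrinkage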"}
{"tested_on": "Escherichia coli TOP10", "test": "shrunken log2 fold change of peptide-encoding DNA abundance (4.5 h post-induction vs induction); higher = less antimicrobial activity (less host growth inhibition)", "settings": "time post-induction: 4.5 h; library: site-saturation at positions 5, 18, 19, 20"}
{"sequence": "RRIRKRPPRLPRPRPRPSATPRP", "shrunken log2 fold change": 0.368}
{"sequence": "RRIRWRPPRLPRPRPRPYERPRP", "shrunken log2 fold change": -0.0653}
{"sequence": "RRIRFRPPRLPRPRPRPLWHPRP", "shrunken log2 fold change": -0.248}
{"sequence": "RRIRPRPPRLPRPRPRPKTCPRP", "shrunken log2 fold change": -0.124}
{"sequence": "RRIRFRPPRLPRPRPRPDMLPRP", "shrunken log2 fold change": -0.125}
{"sequence": "RRIRVRPPRLPRPRPRPNTWPRP", "shrunken log2 fold change": -0.197}
{"sequence": "RRIRIRPPRLPRPRPRPYIAPRP", "shrunken log2 fold change": -0.158}
{"sequence": "RRIRRRPPRLPRPRPRPKKRPRP", "shrunken log2 fold change": 0.976}
{"sequence": "RRIRRRPPRLPRPRPRPWTQPRP", "shrunken log2 fold change": -0.0997}
{"sequence": "RRIRGRPPRLPRPRPRPRDVPRP", "shrunken log2 fold change": 0.654}
{"sequence": "RRIRTRPPRLPRPRPRPYIVPRP", "shrunken log2 fold change": -1.04}
{"sequence": "RRIRRRPPRLPRPRPRPITHPRP", "shrunken log2 fold change": -0.287}
{"sequence": "RRIRWRPPRLPRPRPRPQLKPRP", "shrunken log2 fold change": 0.147}
{"sequence": "RRIRLRPPRLPRPRPRPPMGPRP", "shrunken log2 fold change": 0.194}
{"sequence": "RRIRERPPRLPRPRPRPNSLPRP", "shrunken log2 fold change": 0.0427}
{"sequence": "RRIRFRPPRLPRPRPRPNQMPRP", "shrunken log2 fold change": -0.167}
{"sequence": "RRIRSRPPRLPRPRPRPAGEPRP", "shrunken log2 fold change": 0.0686}
{"sequence": "RRIRGRPPRLPRPRPRPLTCPRP", "shrunken log2 fold change": 0.416}
{"sequence": "RRIRNRPPRLPRPRPRPDTKPRP", "shrunken log2 fold change": -0.0152}
{"sequence": "RRIRVRPPRLPRPRPRPQQGPRP", "shrunken log2 fold change": 0.403}
{"sequence": "RRIRMRPPRLPRPRPRPTHIPRP", "shrunken log2 fold change": -0.363}
{"sequence": "RRIRTRPPRLPRPRPRPFMMPRP", "shrunken log2 fold change": -0.203}
{"sequence": "RRIRGRPPRLPRPRPRPPIRPRP", "shrunken log2 fold change": 0.849}
{"sequence": "RRIRWRPPRLPRPRPRPNHLPRP", "shrunken log2 fold change": -0.281}
{"sequence": "RRIRMRPPRLPRPRPRPKEWPRP", "shrunken log2 fold change": 0.0859}
{"sequence": "RRIRCRPPRLPRPRPRPQWLPRP", "shrunken log2 fold change": -0.133}
{"sequence": "RRIRWRPPRLPRPRPRPACSPRP", "shrunken log2 fold change": 0.528}
{"sequence": "RRIRHRPPRLPRPRPRPPKAPRP", "shrunken log2 fold change": 0.0427}
{"sequence": "RRIRHRPPRLPRPRPRPRVCPRP", "shrunken log2 fold change": 0.318}
{"sequence": "RRIRLRPPRLPRPRPRPEKNPRP", "shrunken log2 fold change": 0.0916}
{"sequence": "RRIRHRPPRLPRPRPRPFTMPRP", "shrunken log2 fold change": -0.349}
{"sequence": "RRIRTRPPRLPRPRPRPEACPRP", "shrunken log2 fold change": -0.1}
{"sequence": "RRIRGRPPRLPRPRPRPDGDPRP", "shrunken log2 fold change": 0.265}
{"sequence": "RRIRHRPPRLPRPRPRPWLKPRP", "shrunken log2 fold change": -0.185}
{"sequence": "RRIRARPPRLPRPRPRPETGPRP", "shrunken log2 fold change": 0.772}
{"sequence": "RRIRIRPPRLPRPRPRPPKKPRP", "shrunken log2 fold change": -0.114}
{"sequence": "RRIRERPPRLPRPRPRPKWDPRP", "shrunken log2 fold change": 0.953}
{"sequence": "RRIRTRPPRLPRPRPRPGIFPRP", "shrunken log2 fold change": -0.146}
{"sequence": "RRIRCRPPRLPRPRPRPQHIPRP", "shrunken log2 fold change": -0.868}
{"sequence": "RRIRWRPPRLPRPRPRPYPCPRP", "shrunken log2 fold change": -0.105}
{"sequence": "RRIRQRPPRLPRPRPRPETEPRP", "shrunken log2 fold change": 0.0982}
{"sequence": "RRIRNRPPRLPRPRPRPFCPPRP", "shrunken log2 fold change": -0.278}
{"sequence": "RRIRYRPPRLPRPRPRPHAWPRP", "shrunken log2 fold change": -0.129}
{"sequence": "RRIRVRPPRLPRPRPRPSQSPRP", "shrunken log2 fold change": -0.146}
{"sequence": "RRIRLRPPRLPRPRPRPNEKPRP", "shrunken log2 fold change": -0.00697}
{"sequence": "RRIRWRPPRLPRPRPRPKSKPRP", "shrunken log2 fold change": 0.194}
{"sequence": "RRIRERPPRLPRPRPRPNKFPRP", "shrunken log2 fold change": -0.143}
{"sequence": "RRIRGRPPRLPRPRPRPSREPRP", "shrunken log2 fold change": 0.51}
{"sequence": "RRIRLRPPRLPRPRPRPFPCPRP", "shrunken log2 fold change": 0.0233}
{"sequence": "RRIRARPPRLPRPRPRPYFHPRP", "shrunken log2 fold change": -0.444}
{"sequence": "RRIRSRPPRLPRPRPRPYMVPRP", "shrunken log2 fold change": -0.497}
{"sequence": "RRIRWRPPRLPRPRPRPMNQPRP", "shrunken log2 fold change": -0.33}
{"sequence": "RRIRERPPRLPRPRPRPHGWPRP", "shrunken log2 fold change": 0.136}
{"sequence": "RRIRPRPPRLPRPRPRPRTKPRP", "shrunken log2 fold change": 0.518}
{"sequence": "RRIRVRPPRLPRPRPRPKQEPRP", "shrunken log2 fold change": 0.239}
{"sequence": "RRIRMRPPRLPRPRPRPWVIPRP", "shrunken log2 fold change": 0.0191}
{"sequence": "RRIRKRPPRLPRPRPRPQPKPRP", "shrunken log2 fold change": 0.19}
{"sequence": "RRIRTRPPRLPRPRPRPVHSPRP", "shrunken log2 fold change": -0.0193}
{"sequence": "RRIRFRPPRLPRPRPRPQMPPRP", "shrunken log2 fold change": -0.107}
{"sequence": "RRIRERPPRLPRPRPRPSWEPRP", "shrunken log2 fold change": -0.25}
{"sequence": "RRIRFRPPRLPRPRPRPEFKPRP", "shrunken log2 fold change": -0.0568}
{"sequence": "RRIRSRPPRLPRPRPRPDGPPRP", "shrunken log2 fold change": 0.0211}
{"sequence": "RRIRRRPPRLPRPRPRPTYWPRP", "shrunken log2 fold change": -0.144}
{"sequence": "RRIRIRPPRLPRPRPRPWNRPRP", "shrunken log2 fold change": 0.000744}
{"sequence": "RRIRDRPPRLPRPRPRPLDFPRP", "shrunken log2 fold change": 0.0675}
{"sequence": "RRIRSRPPRLPRPRPRPKQEPRP", "shrunken log2 fold change": 0.286}
{"sequence": "RRIRSRPPRLPRPRPRPTGNPRP", "shrunken log2 fold change": -0.275}
{"sequence": "RRIRWRPPRLPRPRPRPLNRPRP", "shrunken log2 fold change": -0.274}
{"sequence": "RRIRNRPPRLPRPRPRPSYDPRP", "shrunken log2 fold change": -0.452}
{"sequence": "RRIRYRPPRLPRPRPRPRTYPRP", "shrunken log2 fold change": -0.71}
{"sequence": "RRIRVRPPRLPRPRPRPGFLPRP", "shrunken log2 fold change": 0.101}
{"sequence": "RRIRVRPPRLPRPRPRPQLGPRP", "shrunken log2 fold change": -0.0234}
{"sequence": "RRIRFRPPRLPRPRPRPSQKPRP", "shrunken log2 fold change": -0.0426}
{"sequence": "RRIRRRPPRLPRPRPRPTPIPRP", "shrunken log2 fold change": 1.03}
{"sequence": "RRIRMRPPRLPRPRPRPKGCPRP", "shrunken log2 fold change": -0.0257}
